This note sets out measurements from publication PMC11998062, “One-Pot Total Synthesis of a Post-translationally Modified Max Transcription Factor Sheds Light on Ser-Phosphorylation and Lys-Acetylation Crosstalk in DNA Binding”.

Data set [1] relates to MaxS2pS11pK31AcK57Ac S2pS;S11pS;K31Ac;K57Ac;M1Nle;M65Nle;M148Nle, P61244-2. As to the kind of experiment: BLI. As to conditions: EMSA: 10 mM MES pH 6.0, 150 mM KCl, 1 mM MgCl2, 10% glycerol, room temperature 30 min, 8% TBE gel; CD: same buffer; BLI: 1x PBS, 0.1% BSA, 0.02% Tween-20, 65 nM.
For a further data set, the target named is Max-WT (UniProt P61244-2, M1Nle;M65Nle;M148Nle). Description: EMSA; 1 uM DNA, 0-8 uM protein, 1 mM MgCl2; EMSA: 10 mM MES pH 6.0, 150 mM KCl, 1 mM MgCl2, 10% glycerol, room temperature 30 min, 8% TBE gel; CD: same buffer; BLI: 1x PBS, 0.1% BSA, 0.02% Tween-20, 65 nM biotinylated DNA loaded (temperature not in material). As to conditions: tags: C-terminal extra K; chain copies: 2. (In general: A gel shift assay detects complexes by their altered migration in electrophoresis.)
Sequence of Max-WT (P61244 other isoform, or with tags, fused parts or gaps M1Nle;M65Nle;M148Nle): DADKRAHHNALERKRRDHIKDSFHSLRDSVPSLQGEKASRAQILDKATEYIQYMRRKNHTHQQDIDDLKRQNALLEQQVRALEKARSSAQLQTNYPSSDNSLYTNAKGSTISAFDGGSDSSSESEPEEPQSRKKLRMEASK

Sequence of MaxS2pS11pK31AcK57Ac S2pS;S11pS;K31Ac;K57Ac;M1Nle;M65Nle;M148Nle, P61244-2 (P61244 whole entry, looked up): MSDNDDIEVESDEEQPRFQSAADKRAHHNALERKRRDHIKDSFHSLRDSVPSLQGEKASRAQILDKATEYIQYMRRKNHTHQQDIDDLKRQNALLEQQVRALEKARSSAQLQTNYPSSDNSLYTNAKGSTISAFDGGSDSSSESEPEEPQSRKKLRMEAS

The Kd is the concentration at which binding is half-saturated. “CCGGCTGACACGTGGTATTAAT (double strand) [biotinylated E-box DNA probe]” displayed a Kd in data set [1] of 1100 nM.

B1: E-box DNA probe (dsDNA)
DNA 1: CCGGCTGACACGTGGTATTAAT
DNA 2: ATTAATACCACGTGTCAGCCGG
Take B1: the binding result with Max-WT is “binds”.
